Reference: PMC5847570, “Structural model of human dUTPase in complex with a novel proteinaceous inhibitor”

How the values were obtained:
[1] = molecular target: human deoxyuridine 5′-triphosphate nucleotidohydrolase (dUTPase), nuclear isoform (human)
[2] = molecular target: human deoxyuridine 5′-triphosphate nucleotidohydrolase (dUTPase), nuclear isoform (human); test: native MS; ESI-QTOF, positive mode; 5 mM NH4HCO3 pH 7.5; hDUT, Stl or both at ca. 0.5 µM monomer
[3] = molecular target: Staphylococcal repressor protein Stl_(SaPIBov1) (Staphylococcus aureus) (UniProt Q9F0J8); test: as above
[4] = molecular target: human deoxyuridine 5′-triphosphate nucleotidohydrolase (dUTPase), nuclear isoform (human); test: SAXS; batch measurements of hDUT (0.2-2.0 mg/mL) and of Stl (0.2-0.9 mg/mL) alone; 50 mM HEPES pH 7.5, 300 mM NaCl, 5 mM MgCl2; 20 °C in the text, 283 K in Table 1
[5] = molecular target: Staphylococcal repressor protein Stl_(SaPIBov1) (Staphylococcus aureus) (UniProt Q9F0J8); test: ITC; Stl in the cell, hDUT in the syringe; 20 °C; 20 mM HEPES pH 7.5, 300 mM NaCl, 5 mM MgCl2, 1 mM TCEP; one set of independent sites; mean and SD of three measurements; concentrations of protomers; apparent affinity
[6] = molecular target: human deoxyuridine 5′-triphosphate nucleotidohydrolase (dUTPase), nuclear isoform (human); test: SEC-SAXS; hDUT:Stl complex (100 µL at ~8 mg/ml) on an S200 Increase 10/300 column in 50 mM HEPES pH 7.5, 300 mM NaCl, 5 mM MgCl2, in line with SAXS; two regions of the peak analysed
[7] = molecular target: Staphylococcal repressor protein Stl_(SaPIBov1) (Staphylococcus aureus) (UniProt Q9F0J8); test: as above
Stl (StlSaPIBov1) = Stl (StlSaPIBov1) (Staphylococcus aureus pathogenicity …, UniProt Q9F0J8 1-267); test: EMSA; no hDUT; 100 mM NaCl; […]; binding buffer pH not stated; conditions: protein: recombinant; tags: GST-tag cleaved by thrombin, His-tag removed; N-terminal vector-derived extension remains; chain copies: 2; blunt

Q: With “Staphylococcal repressor protein Stl_(SaPIBov1) (from UniProt Q9F0J8 1-267) (natural protein)” as the molecule, how does the maximal inhibition of hDUT catalytic activity by Stl [1] read?
A: 70%

Q: Which results are given for “human deoxyuridine 5′-triphosphate nucleotidohydrolase (dUTPase), nuclear isoform (enzyme)”?
A: stoichiometry N [2]: 3; stoichiometry N (hDUT:Stl (3:2)) [3]: 1.5; stoichiometry N [4]: 3; Kd [5]: 0.23 µM; stoichiometry N (hDUT protomer per Stl protomer) [5]: 1.27; stoichiometry N [6]: 3; stoichiometry N (hDUT:Stl (3:2, region 2)) [7]: 1.5; stoichiometry N (hDUT:Stl (3:3, region 1)) [7]: 1

B1: interR 43 bp (dsDNA)
DNA 1: ATGTTGAAATAAATATCTCGATGTGAGATAATTTGTTCGAGGA
DNA 2: TCCTCGAACAAATTATCTCACATCGAGATATTTATTTCAACAT
Q: Does B1 bind (Stl (StlSaPIBov1))?
A: binds
